From patent US20130224222A1

Biological target: thioredoxin (endogenous, mouse mediobasal hypothalamus extracts) (mouse) (UniProt P10639)
Experiment: cell-based or functional assay

Chain of UniProt P10639 (P10639 whole entry): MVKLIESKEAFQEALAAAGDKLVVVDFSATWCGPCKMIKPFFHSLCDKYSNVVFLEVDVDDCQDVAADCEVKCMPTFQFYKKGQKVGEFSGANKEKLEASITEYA

Substance: thioredoxin-interacting protein (TXNIP), endogenous mouse (from UniProt Q8BG60 1-397)
- thioredoxin activity in the MBH (insulin-reducing assay) after TXNIP shRNA knockdown: 50 % increase

Substance: human thioredoxin-interacting protein (hTXNIP) (from UniProt Q9H3M7 1-391)
- thioredoxin activity in the MBH (insulin-reducing assay) (fold decrease): 2
